According to paper PMC5269676 (Scientific Reports, 2017):
Changes are numbered by the printed parent chain.

Key:
Keap1 [1] = molecular target: Keap1 (Homo sapiens)
Kelch domain of Keap1 = molecular target: T1, Kelch domain of Keap1; experiment: SPR; Biacore competition assay; concentration of LS146-scFv varied, percent inhibition fitted to a variable slope model; what was immobilised is not told; settings: both partners purified
T1 construct: Cloned into pET-28a in frame with an N-terminal His tag and a TEV protease cleavage site; stored in 20 mM Tris pH 7.5, 5 mM DTT; source: E. coli BL21 (DE3), purified (Ni-NTA, His tag cut off, Ni-NTA flow-through, Superdex 75, if necessary Mono Q); not shown: His tag, N-terminal, cleaved
T1 chain: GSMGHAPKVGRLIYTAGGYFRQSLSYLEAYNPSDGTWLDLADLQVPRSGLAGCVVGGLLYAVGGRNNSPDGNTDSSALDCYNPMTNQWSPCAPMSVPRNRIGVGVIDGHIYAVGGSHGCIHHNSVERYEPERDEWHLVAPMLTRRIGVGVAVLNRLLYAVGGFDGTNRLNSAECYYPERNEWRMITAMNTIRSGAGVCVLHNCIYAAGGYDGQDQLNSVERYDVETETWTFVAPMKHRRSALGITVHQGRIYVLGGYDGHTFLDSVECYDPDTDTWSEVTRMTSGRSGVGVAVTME

Keap1 [2] = molecular target: T2, Keap1 (Homo sapiens); experiment: not stated; potency of LS146-scFv against its Fab form (Supplementary Fig. S6)
T2 construct: Keap1, BTB-Kelch substrate adaptor protein; the crystallised construct is in PDB 5F72; source: recombinant, purified (procedures in Supplementary Methods)

B1: G54 (antibody, V domains shown)
VH: EVQLVESGGGLVQPGGSLRLSCAASGFAISASSIHWVRQAPGKGLEWVASISPETGETYYADSVAGRFTISADTSKNTAYLQMNSLRAEDTAVYYCARQGYAARSGAGFDYWGQGTLVTVSS
VL: DIQMTQSPSSLSASVGDRVTITCRASQSVSSAVAWYQQKPGKAPKLLIYSASSLYSGVPSRFSGSRSGTDFTLTISSLQPEDFATYYCQQSYSFPSTFGQGTKVEIK
- binding result (Keap1 [1]): binds

B2: G55 (antibody, V domains shown)
VH: EVQLVESGGGLIRPGGSLRLSCKGSGFIFENFGFGWVRQGPGKGLEWVSGTNWNGGDSRYGDSVKGRFTISRDNSNNFVYLQMNSLRPEDTAIYYCARGTDYTIDETGERYQGSGTFWYFDVWGRGTLVTVSS
VL: EIVLTQSPDTLSLSPGERATLSCRASQSVHSRYFAWYQHKPGQPPRLLIYGGSTRATGIPNRFSAGGSGTQFTLTVNRLEAEDFAVYYCQQYGASPYTFGQGTKVEIR
- binding result (Keap1 [1]): binds

B3: G56 (antibody, V domains shown)
VH: B2 VH with Y111A
VL: EIVLTQSPATLSVSPGERATLSCRASQNVHPRYFAWYQQKRGQSPRLLIHSGSTRAAGIADRFSGGGSGMHFTLTITRVEPEDFAVYFCQQYGGSPYTFGQGTRVELR
- binding result (Keap1 [1]): binds

B4: LS146-scFv (scFv)
scFv: EVQLVESGGGLVQPGGSLRLSCAASGFAISASSIHWVRQAPGKCLEWVASIDPETGETLYAKSVAGRFTISADTSKNTAYLQMNSLRAEDTAVYYCARAYAGDGVYYADVWGQGTLVTVSSGGGGSGGGGSGGGGSGGGGSDIQMTQSPSSLSASVGDRVTITCRASQSVSSAVAWYQQKPGKAPKLLIYSASSLYSGVPSRFSGSRSGTDFTLTISSLQPEDFATYYCQQSYSFPSTFGCGTKVEIKRT
notes: VH of LS146-scFv; (Gly4Ser)4 linker; VL of LS146-scFv; two residues between VL and the TEV site; also called scFv-LS146; source: CHO-S XE cells, transiently transfected, purified (HisTrap excel, His tag removed, HisTrap flow-through, Superdex 75); not shown: His10 (after a TEV protease cleavage site), C-terminal, cleaved
- IC50 (Kelch domain of Keap1): 0.079 µM

B5: LS146-scFv (scFv, V domains shown)
VH: EVQLVESGGGLVQPGGSLRLSCAASGFAISASSIHWVRQAPGKCLEWVASIDPETGETLYAKSVAGRFTISADTSKNTAYLQMNSLRAEDTAVYYCARAYAGDGVYYADVWGQGTLVTVSS
VL: B1 VL with Q100C
notes: VH of LS146; (Gly4Ser)4 linker, written out; VL of LS146; The His10 tag is cleavable by TEV protease; also called LS146 formatted as a single chain Fv; crystal LS146-scFv; source: CHO-S XE cells; purification in Supplementary Methods
- fold lower potency than the Fab form (LS146 Fab) (Keap1 [2]): 3 fold
